Patent US20250355001A1, “METHOD FOR DETECTING A TAU PROTEIN FRAGMENT IN A SAMPLE” (GTINVENT LIMITED, priority 2022, published 2025)

Legend:
dGAE aggregates = dGAE aggregates (Homo sapiens, UniProt P10636); assay: Epitope occlusion assay: dGAE aggregation with/without LMTM, 423 mAb capture ELISA; format: biochemical; details: total and supernatant samples; 423 mAb capture
Description: During dGAE aggregation in vitro, scAb binding regions on dGA/dGAE are ‘hidden’ or ‘occluded’ which leads to a loss of immunoreactivity in aggregation samples. Here we have shown the occlusion of binding regions in aggregated dGAE samples and the recovery of immunoreactivity in the presence of LMTM, a tau-aggregation inhibitor. For preparing the aggregates, 10 μl 10 mM DTT was added to 1000 μl 100 μM dGAE and agitated with/without LMTM (1:5 ratio) at 700 rpm for 24 h at 37° C. Following overnight agitation, one third of each sample was kept aside as ‘total’ and the rest was spun down at 16000×g for 30 min and separated into ‘supernatant’ and ‘pellet’. The pellet was then resuspended in half the original volume for further experiments. […] Doubling dilutions of dGAE aggregate ‘total’, ‘supernatant’ and ‘pellet’ samples at 10 μg/ml starting concentration were added to designated wells in doubling dilutions in 1×PBS. dGAE monomer (non-aggregated) was included as assay control. All double dilutions were done in final volumes of 100 μl. This was left to incubate on lab bench for 1 h followed by the addition of test scAbs at 10 μg/ml. Anti-HuCk HRP labelled secondary antibody was added as described previously and ELISA data generated is represented using the graph below.

[1] = system: hT40, dGA, dGAE and truncated tau fragments; assay: Binding ELISA / epitope mapping of anti-tau scAbs with truncated tau proteins and 13mer peptides; parameters: species or system human; details: for Tau proteins/fragments with positive scAb reactivity: binding ELISA; for Shortest region bound on hT40: incl. 13mer peptides
Method in brief: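 Plates coated with 1 μg/ml tau protein, or 5 μg/ml streptavidin then 1 μg/ml biotinylated 13mer peptide; blocked with 2% MPBS. scAbs added at a starting concentration and double-diluted. Bound scAb detected with HRP anti-human C kappa and read as absorbance.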

[2] = target: T1, hT40 (T441, SEQ ID NO: 1) (Homo sapiens, UniProt P10636); assay: Biacore X100 SPR kinetics of scAbs for hT40; format: binding; details: Table 23; scAb captured, T441 (hT40) analyte; 1:1 model
T1 construct: Full length tau (hT40)
Description: Surface plasmon resonance (SPR) is widely regarded as the gold standard for real time measurement of protein-protein interactions such as antibody binding. All SPR experiments were carried out using a Biacore X100 machine and HBS EP+ running buffer (GE Healthcare). A ‘capture’ method was followed for affinity measurements, where an anti-human constant kappa chain (HuCk) antibody was conjugated to the surface of a CM5 sensor chip using an amine coupling kit and scAb molecules were immobilised via their HuCk domain. Amine coupling is a very common approach for immobilising the ligand to the chip surface. […] The capture antibody was diluted 1/100 in 10 mM Sodium acetate buffer pH 5.0 and passed over the activated chip surface for a period of at least 420 s. Final ligand immobilisation levels over 12,000 RU were deemed to be satisfactory.
(§1) Following immobilisation, the level of each scAb to be captured was identified using the standard SPR equation with a theoretical RMax of 100 RU. Analyte MW refers to the molecular weight of hT40 or dGA/dGAE molecules, while ligand MW refers to the molecular weight of the scAbs tested. RL is the desired capture level and S refers to the stoichiometric ratio:
The scAb to be tested was added only to flow cell 2 so that flow cell 1 could act as a control to subtract any interaction with the analyte and the chip surface. Both single and multi-cycle runs were utilised using wizards developed in the Biacore X100 control software which are both accepted methods of kinetic analysis (Karlsson, R., et al. Analyzing a kinetic titration series using affinity biosensors (2006) Analytical Biochemistry 349:136-47). The multi-cycle protocol was as follows-Three start-up cycles composed of an initial capture, to the desired level, of the scAb to be tested was performed followed by a 30 s injection of glycine buffer pH 2.0 after each cycle to regenerate the chip surface. […] Following three start-up cycles increasing concentrations (0.15625 nM-100 nM) of the target to be tested were added to the chip surface after the desired scAb capture. The target was added for a 120 s association period and 420 s dissociation period followed by another regeneration, 30 s injection of glycine buffer pH 2.0 in between each cycle.
(§2) The single cycle kinetics protocol was similar and utilised the same level of scAb capture. Three start-up cycles were used followed by 5 increasing concentrations of the analyte (6.25 nM-100 nM) for an association period of 120 s followed by a dissociation period of 420 s for each concentration. In single cycle kinetics the regeneration step was performed only after the final analyte concentration was added. Binding responses were analysed in Biacore X100 evaluation software and data fitted to a 1:1 binding model to obtain kinetic and affinity characterisation.

htau40 = target: T2, htau40 (Homo sapiens, UniProt P10636); assay: Biacore X100 SPR kinetics of anti-tau mAbs on immobilised htau40; format: binding; details: Table 27; mAb format, immobilised htau40
T2 construct: Full length tau (hT40)
Description: For anti-tau mAb SPR measurements, htau40 was conjugated to the surface of a CM5 sensor chip using amine coupling as explained previously. Briefly, 2 μg/mL htau40 in 10 mM Sodium acetate buffer (pH 4.0) was passed over the activated chip surface (EDC/NHS) in flow cell 2 for a period for 45 s followed by blocking with 1 M ethanolamine-HCl PH 8.5. Flow cell 1 was set up as reference control and blocked simultaneously. Final immobilisation level of htau40 (Rmax) was approximately 250 RU. Following a minimum of three start-up cycles, increasing concentrations (0.78 nM-25 nM) of the mAb in HBS-EP+ buffer was added at a rate of […] to the chip. The mAb was added for a 120 s association period and 600 s dissociation period followed by a regeneration cycle of 30 s injection of glycine buffer pH 1.5 in between each cycle. Binding responses were analysed in Biacore X100 evaluation software and data fitted to a 1:1 binding model to obtain kinetic and affinity characterisation.
For anti-tau mAb SPR measurements (Biacore X100™) and epitope mapping, the same methodologies described above (see Example 16) were followed. Kinetic rates and equilibrium binding constants of additional anti-tau mAbs and the regions recognised on hT40 are given in the Table 25 below

dGA (SEQ ID NO: 5) = dGA (SEQ ID NO: 5) (Homo sapiens, UniProt P10636); assay: Biacore X100 SPR kinetics of scAbs for dGA; format: binding; details: Table 24, scAb, dGA analyte; for Kd: dissociation rate
Description: Surface plasmon resonance (SPR) is widely regarded as the gold standard for real time measurement of protein-protein interactions such as antibody binding. All SPR experiments were carried out using a Biacore X100 machine and HBS EP+ running buffer (GE Healthcare). A ‘capture’ method was followed for affinity measurements, where an anti-human constant kappa chain (HuCk) antibody was conjugated to the surface of a CM5 sensor chip using an amine coupling kit and scAb molecules were immobilised via their HuCk domain. Amine coupling is a very common approach for immobilising the ligand to the chip surface. The chip surface has a dextran matrix derivatised with carboxyl groups, which after activation with N-hydroxysuccinimide (NHS) and 1-ethyl-3-(3-dimethylaminopropyl) carbodiimide (EDC), form reactive succinimide esters which allows the covalent capturing of the ligand via any available primary amine groups (e.g. Lysine) on the ligand (in this case anti-HuCk antibody). The capture antibody was diluted 1/100 in 10 mM Sodium acetate buffer pH 5.0 and passed over the activated chip surface for a period of at least 420 s. Final ligand immobilisation levels over 12,000 RU were deemed to be satisfactory.
as §1
The scAb to be tested was added only to flow cell 2 so that flow cell 1 could act as a control to subtract any interaction with the analyte and the chip surface. Both single and multi-cycle runs were utilised using wizards developed in the Biacore X100 control software which are both accepted methods of kinetic analysis (Karlsson, R., et al. Analyzing a kinetic titration series using affinity biosensors (2006) Analytical Biochemistry 349:136-47). The multi-cycle protocol was as follows-Three start-up cycles composed of an initial capture, to the desired level, of the scAb to be tested was performed followed by a 30 s injection of glycine buffer pH 2.0 after each cycle to regenerate the chip surface. The regeneration step removed any captured scAb whilst leaving the capture antibody intact and able to repeat the capture for the next cycle. Following three start-up cycles increasing concentrations (0.15625 nM-100 nM) of the target to be tested were added to the chip surface after the desired scAb capture. The target was added for a 120 s association period and 420 s dissociation period followed by another regeneration, 30 s injection of glycine buffer pH 2.0 in between each cycle.
as §2

[3] = residue numbers of SEQ ID NO: 1 (hT40), CDR Tables 1-11
[4] = Table 26 summary, top scAbs, residues of hT40

T2 sequence (P10636 1-441 isoform P10636-8): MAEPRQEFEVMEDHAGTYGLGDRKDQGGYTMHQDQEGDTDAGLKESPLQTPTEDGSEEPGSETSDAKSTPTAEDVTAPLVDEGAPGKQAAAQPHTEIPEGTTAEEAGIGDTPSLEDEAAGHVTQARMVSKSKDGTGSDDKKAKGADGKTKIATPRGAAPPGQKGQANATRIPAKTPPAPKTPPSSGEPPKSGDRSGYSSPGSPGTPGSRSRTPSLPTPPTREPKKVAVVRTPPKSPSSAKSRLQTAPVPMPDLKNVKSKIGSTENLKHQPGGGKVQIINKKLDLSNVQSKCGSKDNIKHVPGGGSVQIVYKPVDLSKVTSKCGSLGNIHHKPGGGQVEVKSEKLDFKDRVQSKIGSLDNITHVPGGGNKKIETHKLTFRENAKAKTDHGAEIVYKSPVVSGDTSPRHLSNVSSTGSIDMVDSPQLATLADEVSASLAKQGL
T1 sequence (P10636 1-441 isoform P10636-8): as above
Sequence of dGA (SEQ ID NO: 5) (P10636 614-707): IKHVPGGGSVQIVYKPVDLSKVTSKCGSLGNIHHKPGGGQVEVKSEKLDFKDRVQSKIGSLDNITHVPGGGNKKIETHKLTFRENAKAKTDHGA
Sequence of dGAE aggregates (P10636 614-708): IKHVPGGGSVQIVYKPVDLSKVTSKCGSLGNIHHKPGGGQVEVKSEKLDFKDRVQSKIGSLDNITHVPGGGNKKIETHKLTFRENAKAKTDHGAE

B1: CB3: anti-tau core clone, Table 10; SEQ ID NO: 370 (protein)
scFv: QVQLQESGPSLVKPSQTLSLTCTVSGFSLSSVAVNWVRQAPGKVPEWLGGIISNGGTGYNPALKSRLSITRDTSKSQVSLALTHVTTEDTAVYYCGRGVEWEGSMDYLGPGLLVTVSSEGKSSGSGSETKVDDQSVLTQPSSVSGFLGQRVTITCSGSSSNVGAGSYVGWYQQVPGSGLRILIYGATKRASGLPDRFSGSRSGNTATLTISSLQAEDEADYYCVSYQTDFTLVFGSGTRLTVLG
modifications: CB3 amino acid sequence
dGAE aggregates
  immunoreactivity to dGAE aggregation samples prepared in the presence of LMTM: increase in immunoreactivity
[1]; Table 17, 'C' group scAbs
  Tau proteins/fragments with positive scAb reactivity: hT40, 297-390 (dGA)
  Shortest region bound on hT40: 360-390
[1]; [3]
  Epitope: 360-390

B2: CE3: anti-tau core clone, Table 10; SEQ ID NO: 367 (protein)
scFv: QVRLQESGPSLVKPSQTLSVTCTVSGFSLISNAVGWVRQAPGKVPESLAGCSSDGKCYYNSALKSRLDITRDTSKNQISLSLSSVTTDDAAVYYCTRGYYPVYGYDYLGTIDYWGPGLLVTVSSEGKSSGASGESKVDDQAVLTQPSSVSGSLGQRVSITCSGSSSNVGRNDVAWFQQLPGSGLRTIIYGTTSRPSGIPDRFSGSKSGVTATLTIDSLQAEDEADYFCASGDSSAINDIFGSGTRLTVLG
modifications: CE3 amino acid sequence
[2]
  ka: 174500 M⁻¹ s⁻¹
  kd: 0.000662 s⁻¹
htau40
  ka: 103000 M⁻¹ s⁻¹
  kd: 0.001718 s⁻¹
dGAE aggregates
  immunoreactivity to dGAE aggregation samples prepared in the presence of LMTM: increase in immunoreactivity
[1]; Table 17, 'C' group scAbs
  Tau proteins/fragments with positive scAb reactivity: hT40, 266-359 (R1-3)
  Shortest region bound on hT40: 331-360
[1]; [4]
  Epitope: 331-360
[1]; [3]
  Epitope: 331-360

B3: NS2A1: anti-tau clone, Table 11; SEQ ID NO: 220 (protein)
scFv: QVQLQESGPSLVKPSQTLSLTCTVSGFSLSTNSVGWVRQAPGKAPEWVAGIDTDGEEGFNPVLKSRLSITRDTSKSQVSLSLSNVTSEDTAVYYCGRSYRTDGLAYGYVQAIDYWGPGLLVTISSEGKSSGASGESKVDDQSVLTQPSSVSGSPGQTVSITCSGSYIGSSGVGWFQQLPGSGLRTIIVASDGRPSGVPDGFSMSKSGNTATLTISSLQAEDEADYFCGSSDRTQYTGLFGSGTRLTVLG
modifications: NS2A1 amino acid sequence
[2]
  ka: 252100 M⁻¹ s⁻¹
  kd: 0.0007393 s⁻¹
htau40
  ka: 893700 M⁻¹ s⁻¹
  kd: 0.002621 s⁻¹
dGA (SEQ ID NO: 5)
  ka: 188000 M⁻¹ s⁻¹
  Kd: 0.00102 s⁻¹
[1]; Table 16, NS, S and M clones
  Tau proteins/fragments with positive scAb reactivity: hT40, 297-390 (dGA), 297-391 (dGAE)
[1]; [4]
  Epitope: 297-390
[1]; [3]
  Epitope: 297-390

B4: S1E12: anti-tau clone, Table 11; SEQ ID NO: 218 (protein)
scFv: QVQLQESGPSLVKPSQTLSLTCTVSGFSLGSNSVGWVRQAPGKAPEWVAGIDTDGEEGYNPALNSRLSITRDTSKSQVSLSLSSVTSEDTAVYYCGRSYRADGLAYGYVQAIDYWGPGLLVTVSSEGKSSGASGESKVDDRVVRTQPSSVSGSLGQRVSITCSGSFIGISSVGWFQQLPGSGLRTIIVASDGRPSGVPDRFSMSKSGNTATLTISSLQAEDEADYFCGSSDRTQYTGVFGSGTRLTVLG
modifications: S1E12 amino acid sequence
[2]
  ka: 385000 M⁻¹ s⁻¹
  kd: 0.000319 s⁻¹
dGA (SEQ ID NO: 5)
  ka: 2.99e+06 M⁻¹ s⁻¹
  Kd: 0.001627 s⁻¹
[1]; Table 16, NS, S and M clones
  Tau proteins/fragments with positive scAb reactivity: hT40, 297-390 (dGA), 297-391 (dGAE)
  Shortest region bound on hT40: 297-390
[1]; [4]
  Epitope: 297-390
[1]; [3]
  Epitope: 297-390
